Measured values taken from a protein production outcome set (Wang et al. 2014).

Assay: label from the status in PepcDB records

In the case of “MVFNLVVNIIGIVVFIAIAYLFSKQKHAINWRSVGVMLVLEVLLAWFLTGSQVGVDAVKAAADGFTWLVNVSYDGIAFALASWVNVKSMDFVTSSLLPILLIVPLFDILTYIGVLPWIIKWVGRGLAYITGQPKFESFFVVEMMFLGNTEALAVSQLQLKQMKAQRNLTIAMMSMSCVTASILGAYIKMMPGQFILTAVPMNVLNAAIIAAILNPVEVKPEEDTIAKISGSAAVEETTATTETSGSEELANEQVKEAKPAREPFFSFLGDSILGAGRLILIIAANVIAFVALAKLIDKLLGLINSNLSLENIFGVVMFPFAWLLGFNPSDAFQMASYMGTKLVTNEFVVMGEVSSKVNDFAPHFRAVLTVFLTSFANFSTIGMIIGAFKGIVDREKNDLISRNVGYMLLSGILVSLLSAGVVGLFVW”, the protein production is reported as “failed”.
For “SHLVVESFPSYRDVTLFEGKRVSFYKRAQILVADTWSVLEGKGDGCFKDISSITMFADYRLPQVLAHLGALKYSDDLLKKLLKGEMLSYGDRQEVEIRGCSLWCVELIRDCLLELIEQKGEKPNGEINSILLDYYLWDYAHDHREDMKGIPFHRIRCIYY”, the protein production was “failed”.
For “MKINLDRTSSGFCIGVQGTIHVAEEKLAQSGELYCLGDVVHNEVEVKRLEALGMETIDIPAFEELRNAEVLIRAHGEPPSTYETARKNNLAITDTTCPVVAKLQRTAKMLHQLGYQVVIYGKKVHPEVIGINGQCDDEGVVIKHPDLSDPEEIAPLDLSRKTALISQTTMDVPGFYELKRNLEKLFAEHGHRNPGTQSGEWMAVRDIDITAEKTGALAMPKLVFKDTICRQVSSRNGKLRDFALANDCIVFAAGRKSSNGQVLYSICKDANPHSYFIEDVDEIRPEWFVGENGKPVESVGICGATSTPMWLLEKVANYIDKTFGDGSSNPNA”, the protein production was “failed”.
With “MLPDSSVRLNKYISESGICSRREADRYIEQGNVFLNGKRATIGDQVKPGDVVKVNGQLIEPREAEDLVLIALNKPVGIVSTTEDGERDNIVDFVNHSKRVFPIGRLDKDSQGLIFLTNHGDLVNKILRAGNDHEKEYLVTVDKPITDEFIRGMGAGVPILGTVTKKCKVKKEAPFVFRITLVQGLNRQIRRMCEHFGYEVKKLERTRIMNVSLSGIPLGEWRDLTDDELIDLFKLIENSSSEAKPKAKAKPKTAGIKRPVVKMEKTAEKGGRPASNGKRFTSPGRKKKGR” the protein production was “not failed”.
With “IPSDGLTIPYGSGPKPIFRAQVGKKVYQSLINQATESVYITTPYLIIDYDLTETIKNAAMRGVDVRIITPYIPDKKFIQLVTRGAYPDLLSAGVRIYEYSPGFIHSKQMLVDEDFAVVGTINLDYRSLVHHYENAVLLYKTPSIREIARDFRNIFADSQEVYPHSIKTSWYQKLVKEIAQLFAPIL” the protein production was “failed”.
In the case of “MELVVGRVVKSHGVTGEVVVEIRTDDPADRFAPGTRLRAKGPFDGGAEGSAVSYVIESVRQHGGRLLVRLAGVADRDAADALRGSLFVIDADDLPPIDEPDTYYDHQLVGLMVQTATGEGVGVVTEVVHTAAGELLAVKRDSDEVLVPFVRAIVTSVSLDDGIVEIDPPHGLLNLE”, the protein production is reported as “failed”.
With “MLKVLIQTLILGVLLGASAARAELPADYKVVLLTENFPPFNMAVDDKNFARDDGIDGISADIVREMFRRAGIGYSLSLRFPWDRLYRLTLDKPGYGLFSMTYTPERVPQFKWVGPLADTSWVLLAPAGSKIAVKNLKDAARYKLGAYKNDAVSQHLEAQGIPVINALRDQENVKKLTGGQIDLWATTDPVGRYLAKQEGVSGLQTVLRFNEAKLYLALNKDTPDEVVERLQKALEQMRQEGFVDEAVANYL” the protein production was “failed”.
For “MLFSIQTCPCQINPALNAVSTPLLYQDCCQPYHDGLYNQEVEDSDAIRADTAEHLMRTRYSAFVLVKPEYIVKTTLPAQQDLLDIKAIENWAKETDWAGLEVVAHTPKLSKRHAQVEFKAYFKTPDGLQAHHELSTFVKIKNKANSDASWYFLDPTVSMSVTQKQPCICGSGEKFKRCCGMYI”, the protein production was “not failed”.
In the case of “MSLNGKLDFSNRQARILYNKAIAKALFGLDIEYHPKGLVTTPISRYIFLKTFLRGGEVALEIGTGHTAMMALMAEKFFNCKVTATEVDEEFFEYARRNIERNNSNVRLVKSNGGIIKGVVEGTFDVIFSAPPYYDKPLGRVLTEREAIGGGKYGEEFSVKLLEEAFDHLNPGGKVALYLPDKEKLLNVIKERGIKLGYSVKDIKFKVGTRWRHSLIFFKGISEGHHHHHH”, the protein production is reported as “not failed”.
With “MIREKALEFHKNNFPGNGKIEVIPKVSLESREELTLAYTPGVAEPCKEIARDPGKVYEYTSKGNLVAVVSDGSRILGLGNIGPLAGLPVMEGKALLFKRFGGVDAFPIMIKEQEPNKFIDIVKAIAPTFGGINLEDIASPKCFYILERLREELDIPVFHDDQQGTAAVVLAGLLNALKVVGKKISEITLALFGAGAAGFATLRILTEAGVKPENVRVVELVNGKPRILTSDLDLEKLFPYRGWLLKKTNGENIEGGPQEALKDADVLISFTRPGPGVIKPQWIEKMNEDAIVFPLANPVPEILPEEAKKAGARIVATGRSDYPNQINNLLGFPGIFRGALDVRARTITDSMIIAAAKAIASIVEEPSEENIIPSPLNPIVYAREARAVAEEAMKEGVARTKVKGEWVEEHTIRLIEFYENVIAPINKKRREYSKAITRA” the protein production was “not failed”.
For “MSANPDRFLGRAEVYAAARPDYPPALGNELARRGLLRGQVADLGAGTGLFTRLLLQRGAQVIAVEPNPEMREQLLRALAAEVTRGQLRVQSGTAEATGLPGSSVDLLTAAQAAHWFDPAPTRREFQRVLRPGGQVLFVWNDWREADGPFNEAYGAVVAHFSPEEGRVRTRVPRDELAQWFSGAPEELSFDHPLTFTRERLHALAGSVSYLPAPGSERFPELLARLDQAFDRQARQDTVELTYRTFAFLGRV”, the protein production was “failed”.
With “MTIACPQCGATAEARTDTRFHGCAFCGSSFMVERGVGIAEYHLDHERDDRVAWSAVASTLERDGAGQAVERTGCEYLVAPFWLSRPESGGNRLVPALRHPWLQGPLPGLPGGDLLFVPSGDDFILPDIPADEALGEGADRGGTSLSLVYLPLYLLSFRLAGHDCRALVSAVDRRVALLTPLPARSESVPFRHAALVAGFAITLTASGLAVKSHFLRAAVFAAVLAVAWPVCTALLRRGE” the protein production was “failed”.
With “MPGPSRKAAAWLPILVILVAMTSIQSGASLAKSLFPVVGAPGVTALRLALGTLILVVVFKPWRLRFSPAQRVPLLLYGLALGAMNYLFYLSLQRIPLGVAVALEFTGPLAVALFGSRRPLDFVWVALAILGLWYLLPLGQNVAQVDLTGALFALGAGACWAVYILTGQRAGEEHGPATVAMGSLIASLVFVPLGMAQATDTLWQWSLLPLGLGIAILSTALPYSLEMMALTRLPTRTFGTLMSLEPALAALSGMIFLGETLKLSQTLALGAIIIASMGATLTMQRQSKVEQVDIN” the protein production was “failed”.
With “MAKSEEIIRERYKVMAPRIIKALNQRNFEAYFCETSEKAVECALSLIPQGASVAWGGSMTLEEIGLIQRLKEGNYQVIDRDTAKSQEERFSLMRQALLSDVYLASVNAMSEDGIMVNIDGRGNRISAIAFGPKTVILVVGMNKICRDLESARKRAHTYAAPNNALRLGLELPCTKTGCCFDCNKNNPSSICAQIVEMHSSIVPGRIKVILVGENLGL” the protein production was “failed”.
For “MLRQIRRNALSNFLSLWNEAATTSLGFFWMALWAFILGYVISSLIQVLVTRRKMQQAMGEDGPRSIALGTFFGFISSSCSFSALATTRAIFNKGAGLAPSLAFMLASTNLVIELGIVIAVFLGWQFVVGEYVGGVLLILVTWLLIRLTRPRRLEAQARRKMDDGDGDGGNSDKSWKEKITSKEGWQAIAQTYVMEWQMVWKDVLIGFTVAGIISAMVPQSFFEALFIGAGGENAANPGFLAVLSQTLVGPIAAFFTFIGSMGNIPLAAVLFAQGVSFAGVMAFIFSDLVVLPVLRINASYYGWKMALYILALMLVGIVTVSLLMHYSLALLGMLPDFSGQTSMGEREFFKWNYQAVLNILFLTATAILLWFWRQGQKQHSHDHHHHDHDHGGSSLTDKVLSVLVVVALLWLAGGVVVPLF”, the protein production was “failed”.
In the case of “MTPIAQRDGQAIQLVGFDGDDTLWKSEDYYRTAEADFEAILSGYLDLGDSRMQQHLLAVERRNLKIFGYGAKGMTLSMIETAIELTEARIEARDIQRIVEIGRATLQHPVEVIAGVREAVAAIAADYAVVLITKGDLFHQEQKIEQSGLSDLFPRIEVVSEKDPQTYARVLSEFDLPAERFVMIGNSLRSDVEPVLAIGGWGIYTPYAVTWAHEQDHGVAADEPRLREVPDPSGWPAAVRALDAQAGRQQ”, the protein production is reported as “not failed”.
For “LAYQPGKLLVRGDTPLFKIERLLGIDLDHIEAETLAGLIYETLKRVPEEEEQMEVEGLRIIIKKMKGPKIVLAKVLKLD”, the protein production was “not failed”.
With “MDILKSEILRKRQLVEDRNLLVENKKYFKRSELAKKEEEAYFERCGYKIQPKEEDQKPLTSSNPVLELELAEEKLPMTLSRQEVIRRLRERGEPIRLFGETDYDAFQRLRKIEILTPEVNKGLRNDLKAALDKIDQQYLNEIVGGQEPGEEDTQNDLKVHEENTTIEELEALGESLGKGDDHKDMDIITKFLKFLLGVWAKELNAREDYVKRSVQGKLNSATQKQTESYLRPLFRKLRKRNLPADIKESITDIIKFMLQREYVKANDAYLQMAIGNAPWPIGVTMVGIHARTGREKIFSKHVAHVLNDETQRKYIQGLKRLMTICQKHFPTDPSKCVEYNAL” the protein production was “failed”.
With “MNLVETAQAIKTGKVSLGIELGSTRIKAVLITDDFNTIASGSYVWENQFVDGTWTYALEDVWTGIQQSYTQLAADVRSKYHMSLKHINAIGISAMMHGYLAFDQQAKLLVPFRTWRNNITGQAADELTELFDFNIPQRWSIAHLYQAILNNEAHVKQVDFITTLAGYVTWKLSGEKVLGIGDASGVFPIDETTDTYNQTMLTKFSQLDKVKPYSWDIRHILPRVLPAGAIAGKLTAAGASLLDQSGTLDAGSVIAPPEGDAGTGMVGTNSVRKRTGNISVGTSAFSMNVLDKPLSKVYRDIDIVMTPDGSPVAMVHVNNCSSDINAWATIFHEFAARLGMELKPDRLYETLFLESTRADADAGGLANYSYQSGENITKIQAGRPLFVRTPNSKFSLPNFMLTQLYAAFAPLQLGMDILVNEEHVQTDVMIAQGGLFRTPVIGQQVLANALNIPITVMSTAGEGGPWGMAVLANFACRQTAMNLEDFLDQEVFKEPESMTLSPEPERVAGYREFIQRYQAGLPVEAAAGQAIKYLEHHHHHH” the protein production was “not failed”.
In the case of “MKTLGNILWFIFGGFFGGLSWLFAGVIWCITIIGIPIGLQCFKLAGLSFWPFKKRVVYSDSGVSLVVNIIWLIISGLPLAIGHCISGLFLCLTIIGIPFGQQSFKLAKLALMPFGARVVSTNDFYFE”, the protein production is reported as “failed”.
With “MEISEQESVLEVKKRLGQFLQIPTSSITLFVSCWELIDGLDIEDYPIISHGTRIDLTVTPLFTAPSFIHAAVRKIHVTVKFPSKQFTVEVDRTETVSSLKDKIHIVENTPIKRMQLYYSGIELADDYRNLNEYGITEFSEIVVFLKSINRAKDVAPTSSSLFNGARIPVEIKDTCTISEMREGLQANKTLPRDEYIFVHKQRIMRENCSLRWHGVENGDTLFVFKGSISREGF” the protein production was “failed”.
With “MNPENWLLLRRVVRFGDTDAAGVMHFHQLFRWCHESWEESLESYGLNPADIFPGSRKSEVTPEVALPIIHCQADFRRPIHTGDALAMELRPERLNPNSFQVHFEFRCEEQIAAHALIRHLAINAQTRHRCALPEGIDRWLEASGVGKIGSI” the protein production was “not failed”.
In the case of “MEDKTLGLLLDVVGELFSDEISIAVSNTKEYIYYRPSKRIDLKISAGDPIKEGTIAHKAMVTNQKTSEFMNRDVFGIPYHGMAVPFSNNGKLEGCVTAIYPALTDGKSVVTLKTTDGWIPVPFSKVMYLEAKDKKTYVNAEELTGTHKYSLQEFEYLLPKDSFIRCHRSFIVNVNHIKAIYPDTHSTFLLSMDNGERVPVSQSYASYFRKLLGF”, the protein production is reported as “not failed”.
